Test results: a protein production outcome set (Wang et al. 2014)

Test: label from the status in PepcDB records

| Sequence | protein production |
| --- | --- |
| MAAVWQQVLAVDARYNAYRTPTFPQFRTQYIRRRSQLLRENAKAGHPPALRRQYLRLRGQLLGQRYGPLSEPGSARAYSNSIVRSSRTTLDRMEDFEDDPRALGARGHRRSVSRGSYQLQAQMNRAVYEDRPPGSVVPTSAAEASRAMAGDTSLSENYAFAGMYHVFDQHVDEAVPRVRFANDDRHRLACCSLDGSISLCQLVPAPPTVLRVLRGHTRGVSDFAWSLSNDILVSTSLDATMRIWASEDGRCIREIPDPDSAELLCCTFQPVNNNLTVVGNAKHNVHVMNISTGKKVKGGSSKLTGRVLALSFDAPGRLLWAGDDRGSVFSFLFDMATGKLTKAKRLVVHEGSPVTSISARSWVSREARDPSLLINACLNKLLLYRVVDNEGTLQLKRSFPIEQSSHPVRSIFCPLMSFRQGACVVTGSEDMCVHFFDVERAAKAAVNKLQGHSAPVLDVSFNCDESLLASSDASGMVIVWRREQK | failed |
| MKIVILGAGRVGSTVAESLASESNDITVVDLVRNRLSLLQERLDLRTVVGSASHPDIMIQAGMEDADMILALTGSDETNLVACKLAASMFNTPTRIARIRTVDYLDHPDIFSRENFCVDFAICPERILTKYIEKLIEFPGALQVLDFASGKVSLVAVKAIRGGPLIGRQLKELRRHVPNLDTRVAAIFRHNHPIIPEGSTIVEEGDEVFFIASSSDIRAVMGELRRMDKSVRRVMIAGGGRIGRRLAEVLQQSHQVRIIERDIKVCESLTQNLHNTLILHGNVTDEELLESENISEMDIFCALTDDEENNIMAALMAKRMGARKVIALINRSMYVDLMQDSGIDIAISPAQVTIGSLLAYVRQGDVAVVHSLRRGAAEALELVAHGDTRSSRVVGRKIEEIKLPRSTTIGAIVRGLPPGDVYRNLSEQEEDSILAQWKQAQVIIAHHDTVIEQNDHVILFVVNKKMVRQVEKLFQVNVGFL | failed |
| DKGTALLVNRSLRFGERTAEELMTPRVKIVTLSTTDTVADLIDTASRTGFSRFPVVESDLDDAVGVVHIKHAFAVPAHRRRTARLNSLAQKVPVVPSSLDGDALMERIRSDGMQVAFVVDEYGGTAGMVTMEDLIEEIVGDVR | failed |
| MASRSASQASDALSQHGCPFSVRAKAFHGGRCMHELIGDITLSILFAWLLGLAAHFFRQPLILAYLIGGFVIGPFGLGWVKSENSISVISELGLIFMLFMIGLEIDLKKIIRAGPVILVAAGGQIAGGVLLGLAFFVGIGLSLGGGHFDALYLTVACALSSTVIIVKVLYEKRELDTLPGRITLGILVLQDIFAILFLAVQPSLADLQISVLLLSIARVVALVATALALSRYVLPWLFHRIARTPELVLLGALAWCFLIGEIAERLHLSREMGALVAGVSLSTFPYALDVTAKVTTLRDFFITLFFVALGMTIPIPNGSVIGLALAIAVFTLASRLLTTFLPLYLMKQGLRASLLPALNLAQISEFSLVVIQTGVAAGHIGTQTASAASFAFVLLAVLSTFVIMRSDPITRRAIGTLTKFGFRDLGQQQSGAEAAAEAGHGAVHRIVILGFFRAASALVSEIEQHTPELLKQISVIDFNPMVYRTLTERGMHVIYGDISNVDTLLHAGVAKAEIIILSVPDSLLKGATNERLVRHVRALNPNAQIVATADLLADVEAMYQAGADYVTVTRLADARELFEVIEAADNGLLSDKRAALDARLAERREVLP | failed |
| MPCTPDTTSHPCFTEKAAQSCGRVHLPVAPKCNVLCGYCNRKYDCVNESRPGVTSGVLTPAQAADYLDRVLEREPAIRVAGIAGPGDPMANAAATLETLRLIRQRHPDMLFCLSSNGLGMPPHLDALAANGVTHATLTINAVDPDISARLYTWVRDGKVVWRGRPAAELMLERQLTALTGLVQRGIVVKVNTILVPGINDGHVEQVAEKVAALGATLMNIIPLHPTHDTPLAQVAEPSPEAVGEARRLAGAHIRQMTHCRRCRADAVGLLHHDRSRELAPLLRECAQKDDGAGARPFVAVATREGMLVNQHLGEATRLQIWGLGPARSGKGGTTTGGEAASGRNDAKGTGSGDVPGSTGGNSWGKAGATPWDSEEDKNDKRTDSTGSTGGDSGAVCGTTHGTTCGKDATRAGTDATDMPVPVLLEERATPRPGCGPERWHALADMLKDCRAVLTAACGESPRAILREHGITVTECAGIVEDVVGAVLAGLDVNAFRARKGGVSKGCCRGGGDGC | failed |
| MAGFMKNAMSYLGMSDVVDDEDDYIEEDEEQKPASKSAFDSDHTVTPLASTTAPAASSTTKPFPGGRVNRITTIHPKSYEDAQLVGRALRDGVPVVLNLTGVAEAVAYRIVDFSAGVVFGVRGSLERVTPRVFLLSPAQVNIKVEEPTKPASAHDLFADLEHHHHHH | failed |
| ELALWSPEVKIVELVKDCKGLGFSILDYQDPLDPTRSVIVIRSLVADGVAERSGGLLPGDRLVSVNEYCLDNTSLAEAVEILKAVPPGLVHLGIC | not failed |
| MLFQDDKGVGVAIYRRRFTVLGCASSPGVPRINGDWGACDPQNPRNRRTRAAFMVEQIGPDGGKTTVVIDTGPDFREQMIAAKVQAVDAVLYTHAHADHLHGIDDLRIYFALQKSRIPIWADPVTMARIRDGFAYCLETPAGSNYPPIVRPQLIADINDPVIIDGAGGPIPFKVHMQQHGDVHSLGFRIGDVAYCTDVSDFPAESLPKLTGLDVLVIDALQYRYHPSHLSLEQALGWIEALAPKRAILTHMHIPLDYDTVMRETPDHVEPAYDQMRFEVEIEAP | failed |
| MIALLPAYLLWVVLSLLEYNRQAREQIQDDIFREREYASVALRGISDAVVSIDTEQVIQYLNPAAEALLGLPAAQLLQRRLKQVAPLHYEFSRQPVQDPIEQAIATQQVVHLAQNCYLKRHNGEKLLVEGAVAPLLGRNGQLIGSVLTFRDTAPIRRRMLAALEASESRLRQHELELARVTRINTMGEMASGIAHEINQPLSAIMSYCQAGLSLLEDDELDMAMLRRALTSSVSQADRAGRIIHRLREFVTQKNQQLAPVQLNQAVHNALSLLDYELHDHDIHIEQNFAPELPLVYADTIQLEQVVLNLARNAVEAMEPTRPWGRLSITTRRQGERVQLIISDNGCGIPPDKLDRIFDPFFSTKPNGMGLGLAICQTAVEAFGGKLIAGNKPGSGAEFIIDLPCAPRDMAVPSGVEA | failed |
| GMQGYFFNTRRDLFKDIRVREALSYAFDFEWSNKNLFFGQYTRTKSFFDNSELASFGTPSPQEREWLTPFKEQLPEGIFDQPFTLPTTKGDGNIRPQLKRAQQLLKEAGYEIKNKKLIHTTTGQPFVFELLLLSPAMERVALPFKRNLATLGIEMKIRTIDLTQYINRLREFDYDMIVGVIGQSLSPGNEQRYYWHSSSKDERGSKNYAGIDHPAVDRLVEMVVNAKDRRELVDYTRALDRVLLWNHYVIPHFHNR | not failed |
| MNEKIEQAIREMGFKNFTEVQSKTIPLMLQGKNVVVRAKTGSGKTAAYAIPILELGMKSLVVTPTRELTRQVASHIRDIGRYMDTKVAEVYGGMPYKAQINRVRNADIVVATPGRLLDLWSKGVIDLSSFEIVIIDEADLMFEMGFIDDIKIILAQTSNRKITGLFSATIPEEIRKVVKDFITNYEEIEACIGLANVEHKFVHVKDDWRSKVQALRENKDKGVIVFVRTRNRVAKLVRLFDNAIELRGDLPQSVRNRNIDAFREGEYDMLITTDVASRGLDIPLVEKVINFDAPQDLRTYIHRIGRTGRMGRKGEAITFILNEYWLEKEVKKVSQKA | not failed |
| MSTPSHLNAQPLVWGHGPRTFEVFLEPTCPYSVRAFNKLDDLLDEVGADNVTIKIRLQSQPWHLFSGVIVRCILAASTLPHGREQAHKVMQAVADHREEFEFTDHCSGPNMNATPQQIIERIERYSHVLLGAAFARPELQDVIKWHSKYARQNGIHVSPTFMVNGLVQPDLGSGDDVSVWAARIMA | failed |
| MNKGNTLDSIPTDLILEIFSRLSAKSVGRLRCLSKLWRKGEWFFFSSLQPQNLYEKPFLVVAADFHMKFSEDMSHDIYSYASGLIYFPKMLIENEKSGAIRVICNPITGQYAILPKLITLQAARSFLGFDPIDNQFKVLLVNNDIVNNDMDILTLGIGELMSEKLKFIEAKCFFALDDVQLINYKGKLGGISWNNHEVAPVELSMWVLEDVEKQEWSKNVYILPKNVVPNNWLHAAGVTVEGDIVFSEAVVSNPFDVFYFNPEKNTLQHVETHCNHEVFDDENLVNIFVDHVEDLKFDVMKPTYAATSIRPTEQKHKPTSTETSMSRKDHQVRTIDQPQQDRCTFESINNKFDVMCLLDDD | not failed |
| DQHRPATLEALLAGVSLLLPMLDAIPNAAIFIKDSAARYALANNTLVQRCGLKRLQPLLGKTSAEVFPAQFGPGYTEQDRRVLKEGLVLEDQLELHLYGSREPGWCLTHKRPLYNPAGEIIGLVGISVDLQSAADSHP | failed |
| MAAGPEPPEWEPRWRKALRGKENKGSVEIMRKDLNDARDLHGQAESAAAVWKGHVMDRRKKALTDYKKLRAFFVEEEEHFLQEAEKDEGASEDDELADPADRFRSLLQAVSELEKKHRNLGLSMLLQ | not failed |
| MRSVVSFNEGWSFHEGFGQRLLETFDTAKSVSLPHTAVELPFSYFDETSYQRAFTYQKVLRWLPEFEGREVSLVFDAAMADSVVYLNGEEIIAHKDGYTPFEARLTGKLVKGENLVTVKIDGSENPDIPPFGGRIDYLTYAGIYRDVWLKVTDPVSIRNLKIETTDVLRPEKSATIRVDIANPEGRSFSATVTATLKQADGTVVATAATETIGSRTTLSFGGLTGIALWDITDPKLYDVTVELRTEHGSDRISTRFGFRTAEFTPEGFLLNGKPLKLRGLNRHQAFPYVGYAAGRSAQERDADIMKTVLKCNIVRTSHYPQSKWFLDRCDAIGLLVFEEIPGWQHIGDADWQQESIKNVRRMIERDWNHPSIIIWGVRINESQDDHDFYAETNRLARELDSTRQTGGVRYLTESELLEDVYTMNDFILGNEELPGANRPRTALRAQQENTGLSHKVPYLITEFNGHMHPTKIYDQEQRQAEHVRRHLEVLNAAYGDPDISGAIGWCMFDYNTHKDFGSGDRICYHGVMDMFREPKFAAYAYISQCDPSEEIVMKPVTFWARGERNIGGVLPLIILTNCDEVELQYGALSKRIGPDRENYPHLPHPPVVLDHRHFTADELGTWGLEWIDGTFTGYIGGEPVASLTLAADPLPTTLEVVADSSTLRARERDSTRVIIRALDQRGQRLPFMNDSISLKVHGPARIVGPTNVPLQGGTAGFWLEATGFTGEITVEAISTRFAPVTLGVTAA | failed |
| MPSENPIGKTMKSIDEQSLHNARRLFESGDIDRIEVGTTAGLQQIHRYLFGGLYDFAGQIREDNISKGGFRFANAMYLKEALVKIEQMPERTFEEIIAKYVEMNIAHPFLEGNGRSTRIWLDLVLKKNLKKVVNWQNVSKTLYLQAMERSPVNDLELRFLLKDNLTDDVDNREIIFKGIEQSYYYEGYEKG | not failed |
| MAEIKHYQFNVVMTCSGCSGAVNKVLTKLEPDVSKIDISLEKQLVDVYTTLPYDFILEKIKKTGKEVRSGKQLAREVILAVHGMTCSACTNTINTQLRALKGVTKCDISLVTNECQVTYDNEVTADSIKEIIEDCGFDCEILRDS | not failed |
| MADNGQADRKERSNGVIVGTCLAFVAGMIGMAYAAVPLYDMFCRVTGYNGTTQRVEQASDLILDEKIKVTFDANVAAGLPWEFVPVQRDIDVRIGETVQIMYRAKNLASTPTTGQATFNVTPMAAGAYFNKVQCFCFTETTLEPGEEMEMPVVFFVDPEIVKPVETQGIKTLTLSYTFYPREPSKPVAQVKAKAENKL | not failed |
| MTIPTSYLNHTDAEAARKARATYRDGLVAPTSGIAPGFTQANMIVLPRDWAFDFLLYAQRNPKPCPVLDVSDPGSPTTLLAPGADLRTDLPLYRIWRDGKLAEETADATSAWAERDDLVAFLIGCSFTFETPMVEAGIEIRHMTDKSNVPMYLTNRPCRPAGRLKGNMVVSMRPIPASRVADAATISGRFPAVHGAPVHVGAPEQIGISDLSKPDFGDAVRIEPGEVPVFWACGVTPQAAVMASGVPFAITHAPGHMFITDIPDTAYHALEHHHHHH | not failed |
| MTDPSQMQAEELLSFLEEGGTLKMLHDVSADTIEHIYAVGYNFFQSGKIEQAAKVFQLLSMLDHYQARFFIGLGAARQELGEYLQAIDAYSYAALVDINDPRPPFHSAECHLKLEQLTEAESGFYSAKEMSAGKSQYADLHQRAGIMLEAVRNKRSNLEHHHHHH | not failed |
